Experiments:
[1] = test system: PSMA-expressing LNCaP cancer xenografts
Protocol: (§1) LNCaP cell line was obtained from ATCC (LNCaP clone FGC, CRL-1740). […] Cells were cultured in PRM I 1640 medium supplemented with 10% FBS, penicillin (100 U/mL) and streptomycin (100 μg/mL) at 37° C. in a humidified incubator containing 5% CO2. Cells grown to 80-90% confluence were then washed with sterile phosphate-buffered saline (1× PBS pH 7.4) and collected by trypsinization. The collected cells concentration was counted with a Hausser Scientific (Horsham, Pa.) Hemacytometer.
(§2) Imaging and biodistribution experiments were performed using NODSCID 1 L2RγKO male mice. Mice were anesthetized by inhalation with 2% isoflurane in oxygen, and implanted subcutaneously with 1×10^7 LNCaP cells behind left shoulder. Mice were imaged or used in biodistribution studies when the tumor grew up to reach 5-8 mm in diameter during 5-6 weeks.
(§3) PET imaging experiments were conducted using Siemens Inveon micro PET/CT scanner. Each tumor bearing mouse was injected 6-8 MBq of Ga-68 labeled tracer through the tail vein under anesthesia (2% isoflurane in oxygen). The mice were allowed to recover and roam freely in their cage. After 50 min, the mice were sedated again with 2% isoflurane in oxygen inhalation and positioned in the scanner. A 10-min CT scan was conducted first for localization and attenuation correction after segmentation for reconstructing the PET images. Then, a 10-min static PET imaging was performed to determined uptake in tumor and other organs. The mice were kept warm by a heating pad during acquisition. For biodistribution studies, the mice were injected with the radiotracer as described above. The mice was anesthetized with 2% isoflurane inhalation, and euthanized by CO2 inhalation. Blood was withdrawn immediately from the heart, and the organs/tissues of interest were collected. The collected organs/tissues were weighed and counted using a Perkin Elmer (Waltham, Mass.) Wizard2 2480 gamma counter. The uptake in each organ/tissue was normalized to the injected dose using a standard curve, and expressed as the percentage of the injected dose per gram of tissue (% ID/g).
(§4) LNCaP cell line was obtained from ATCC (LNCaP clone FGC, CRL-1740). […] Cells were cultured in PRM I 1640 medium supplemented with 10% FBS, penicillin (100 U/mL) and streptomycin (100 μg/mL) at 37° C. in a humidified incubator containing 5% CO2. Cells grown to 80-90% confluence were then washed with sterile phosphate-buffered saline (1× PBS pH 7.4), and collected by trypsinization. The collected cell concentration was counted with a Hausser Scientific (Horsham, Pa.) Hemacytometer.
(§5) Imaging and biodistribution experiments were performed using NODSCID 1L2RγKO male mice. Mice were anesthetized by inhalation with 2% isoflurane in oxygen, and implanted subcutaneously with 1×10^7 LNCaP cells behind left shoulder. Mice were imaged or used in biodistribution studies when the tumor grew up to reach 5-8 mm in diameter during 5-6 weeks.
(§6) PET imaging experiments were conducted using Siemens Inveon micro PET/CT scanner. Each tumor bearing mouse was injected 6-8 MBq of Ga-68 or F-18 labeled tracer through the tail vein under anesthesia (2% isoflurane in oxygen). The mice were allowed to recover and roam freely in their cage. After 50 min, the mice were sedated again with 2% isoflurane in oxygen inhalation and positioned in the scanner. A 10-min CT scan was conducted first for localization and attenuation correction after segmentation for reconstructing the PET images. Then, a 10-min static PET imaging was performed to determined uptake in tumor and other organs.
(§7) For biodistribution studies, the mice were injected with the radiotracer as described above.

in vivo = conditions: male, NODSCID 1L2RγKO, mouse, iv, total radioactivity
Protocol: as §1, §2, §3, §4, §5, §6, §7

[2] = male, NODSCID 1L2RγKO, mouse, in vivo, iv, 1 h

Question: With `O=C(O)CN1CCN(CC(=O)O)CCN(CC(=O)NC[C@H]2CC[C@H](C(=O)N[C@@H](Cc3c4ccccc4cc4ccccc34)C(=O)NCCCC[C@H](NC(=O)N[C@@H](C[C@@H](F)C(=O)O)C(=O)O)C(=O)O)CC2)CCN(CC(=O)O)CC1` [68Ga-HTK04033, metal not drawn] as the compound, how does the “Blood: Salivary ratio” value ([1]; mouse, in vivo) read?
Answer: 4.38 ± 0.57

Question: What about the “Tumor: Blood ratio” value ([1]; mouse, in vivo) of the same compound?
Answer: 31.7 ± 5.00

Question: What about the “Tumor: Kidney ratio” value ([1]; mouse, in vivo) of the same compound?
Answer: 5.64 ± 1.37

Question: And the “Tumor: Muscle ratio” value ([1]; mouse, in vivo)?
Answer: 221 ± 53.4

Question: And the “Tumor: Salivary ratio” value ([1]; mouse, in vivo)?
Answer: 138 ± 21.1

Question: What about the tissue uptake at 1 h (in vivo; Adrenal glands uptake) of the same compound?
Answer: 0.16 ± 0.03 %ID/g

Question: And the tissue uptake at 1 h (in vivo; Blood uptake)?
Answer: 0.59 ± 0.12 %ID/g

Question: What about the tissue uptake at 1 h (in vivo; Bone uptake) of the same compound?
Answer: 0.08 ± 0.01 %ID/g

Question: And the tissue uptake at 1 h (in vivo; Brain uptake)?
Answer: 0.02 %ID/g

Question: What about the tissue uptake at 1 h (in vivo; Fat uptake) of the same compound?
Answer: 0.1 ± 0.03 %ID/g

Question: And the tissue uptake at 1 h (in vivo; Heart uptake)?
Answer: 0.18 ± 0.06 %ID/g

Question: And the tissue uptake at 1 h (in vivo; Intestine uptake)?
Answer: 0.2 ± 0.04 %ID/g

Question: What about the tissue uptake at 1 h (in vivo; Kidneys uptake) of the same compound?
Answer: 3.31 ± 0.34 %ID/g

Question: What about the tissue uptake at 1 h (in vivo; Lacrimal uptake) of the same compound?
Answer: 0.04 ± 0.03 %ID/g

Question: And the tissue uptake at 1 h (in vivo; Liver uptake)?
Answer: 0.29 ± 0.09 %ID/g

Question: And the tissue uptake at 1 h (in vivo; Lungs uptake)?
Answer: 0.5 ± 0.05 %ID/g

Question: What about the tissue uptake at 1 h (in vivo; Muscle uptake) of the same compound?
Answer: 0.09 ± 0.04 %ID/g

Question: What about the tissue uptake at 1 h (in vivo; Pancreas uptake) of the same compound?
Answer: 0.15 ± 0.08 %ID/g

Question: What about the tissue uptake at 1 h (in vivo; Salivary uptake) of the same compound?
Answer: 0.13 ± 0.02 %ID/g

Question: What about the tissue uptake at 1 h (in vivo; Seminal uptake) of the same compound?
Answer: 0.1 ± 0.04 %ID/g

Question: And the tissue uptake at 1 h (in vivo; Spleen uptake)?
Answer: 0.19 ± 0.03 %ID/g

Question: What about the tissue uptake at 1 h (in vivo; Stomach uptake) of the same compound?
Answer: 0.07 ± 0.03 %ID/g

Question: What about the tissue uptake at 1 h (in vivo; Tail uptake) of the same compound?
Answer: 0.66 ± 0.5 %ID/g

Question: And the tissue uptake at 1 h (in vivo; Testes uptake)?
Answer: 0.17 ± 0.05 %ID/g

Question: And the tissue uptake at 1 h (in vivo; Thyroid uptake)?
Answer: 0.18 ± 0.03 %ID/g

Question: And the tissue uptake at 1 h (in vivo; Tumor uptake)?
Answer: 18.5 ± 4.05 %ID/g

Question: What about the excreta dose per gram or mL at 1 h (in vivo; Urine uptake) of the same compound?
Answer: 440 ± 211 %ID/g

Question: Which results are given for `O=C(O)CN1CCN(CC(=O)O)CCN(CC(=O)NC[C@H]2CC[C@H](C(=O)N[C@@H](Cc3c4ccccc4cc4ccccc34)C(=O)NCCCC[C@H](NC(=O)N[C@@H](C[C@H](F)C(=O)O)C(=O)O)C(=O)O)CC2)CCN(CC(=O)O)CC1` [HTK04040]?
Answer: binding to PSMA (in words) ([1]; concluded from biodistribution): bind well to PSMA; kidney and salivary gland uptake (in words) ([1]; mouse, in vivo): much less kidney and salivary gland uptake; tissue uptake at 1 h (in vivo; kidney uptake): 76 %ID/g

Question: With `O=C(O)CCCCC(NC(=O)N[C@@H](CCCCNC(=O)[C@H](Cc1c2ccccc2cc2ccccc12)NC(=O)[C@H]1CC[C@H](CNC(=O)CN2CCN(CC(=O)O)CCN(CC(=O)O)CCN(CC(=O)O)CC2)CC1)C(=O)O)C(=O)O` (single isomer, unassigned) [68Ga-HTK03189B, metal not drawn] as the compound, how does the Adrenal glands uptake [1, 2] read?
Answer: 0.37 ± 0.15 % ID/g

Question: What about the Blood uptake [1, 2] of the same compound?
Answer: 1.06 ± 0.25 % ID/g

Question: And the Bone uptake [1, 2]?
Answer: 0.10 ± 0.02 % ID/g

Question: And the Brain uptake [1, 2]?
Answer: 0.03 ± 0.00 % ID/g

Question: And the Fat uptake [1, 2]?
Answer: 0.17 ± 0.10 % ID/g

Question: And the Heart uptake [1, 2]?
Answer: 0.30 ± 0.06 % ID/g

Question: And the Intestine uptake [1, 2]?
Answer: 0.28 ± 0.07 % ID/g

Question: And the Kidneys uptake [1, 2]?
Answer: 2.13 ± 0.45 % ID/g

Question: What about the Lacrimal uptake [1, 2] of the same compound?
Answer: 0.13 ± 0.04 % ID/g

Question: And the Liver uptake [1, 2]?
Answer: 0.39 ± 0.08 % ID/g

Question: And the Lungs uptake [1, 2]?
Answer: 0.82 ± 0.22 % ID/g

Question: And the Muscle uptake [1, 2]?
Answer: 0.12 ± 0.03 % ID/g

Question: And the Pancreas uptake [1, 2]?
Answer: 0.18 ± 0.05 % ID/g

Question: And the Salivary uptake [1, 2]?
Answer: 0.22 ± 0.04 % ID/g

Question: What about the Seminal uptake [1, 2] of the same compound?
Answer: 2.62 ± 4.74 % ID/g

Question: What about the Spleen uptake [1, 2] of the same compound?
Answer: 0.20 ± 0.05 % ID/g

Question: What about the Stomach uptake [1, 2] of the same compound?
Answer: 0.11 ± 0.03 % ID/g

Question: And the Tail uptake [1, 2]?
Answer: 0.90 ± 0.29 % ID/g

Question: And the Testes uptake [1, 2]?
Answer: 0.26 ± 0.05 % ID/g

Question: What about the Thyroid uptake [1, 2] of the same compound?
Answer: 0.29 ± 0.08 % ID/g

Question: And the Tumor uptake [1, 2]?
Answer: 0.67 ± 0.15 % ID/g

Question: And the Urine uptake [1, 2]?
Answer: 441 ± 138 % ID/g

Question: And the “Blood: Salivary ratio” value ([1]; mouse, in vivo)?
Answer: 4.86 ± 1.16

Question: What about the “Tumor: Blood ratio” value ([1]; mouse, in vivo) of the same compound?
Answer: 0.65 ± 0.15

Question: And the “Tumor: Kidney ratio” value ([1]; mouse, in vivo)?
Answer: 0.32 ± 0.05

Question: What about the “Tumor: Muscle ratio” value ([1]; mouse, in vivo) of the same compound?
Answer: 5.68 ± 1.12

Question: What about the “Tumor: Salivary ratio” value ([1]; mouse, in vivo) of the same compound?
Answer: 3.08 ± 0.53

Source: patent US11504441B2, “Radiolabeled compounds targeting the prostate-specific membrane antigen” (PROVINCIAL HEALTH SERVICES AUTHORITY, priority 2019, dated 2022)
